# Results published in publication PMC4432310, “Different Ligands of the TRPV3 Cation Channel Cause Distinct Conformational Changes as Revealed by Intrinsic Tryptophan Fluorescence Quenching*” (The Journal of Biological Chemistry, 2015).
# B1: human TRPV3 fused to C-terminal GFP and His8 tag (natural protein, UniProt Q8NET8 1-790, looked up)
# chain: MKAHPKEMVPLMGKRVAAPSGNPAILPEKRPAEITPTKKSAHFFLEIEGFEPNPTVAKTSPPVFSKPMDSNIRQCISGNCDDMDSPQSPQDDVTETPSNPNSPSAQLAKEEQRRKKRRLKKRIFAAVSEGCVEELVELLVELQELCRRRHDEDVPDFLMHKLTASDTGKTCLMKALLNINPNTKEIVRILLAFAEENDILGRFINAEYTEEAYEGQTALNIAIERRQGDIAALLIAAGADVNAHAKGAFFNPKYQHEGFYFGETPLALAACTNQPEIVQLLMEHEQTDITSRDSRGNNILHALVTVAEDFKTQNDFVKRMYDMILLRSGNWELETTRNNDGLTPLQLAAKMGKAEILKYILSREIKEKRLRSLSRKFTDWAYGPVSSSLYDLTNVDTTTDNSVLEITVYNTNIDNRHEMLTLEPLHTLLHMKWKKFAKHMFFLSFCFYFFYNITLTLVSYYRPREEEAIPHPLALTHKMGWLQLLGRMFVLIWAMCISVKEGIAIFLLRPSDLQSILSDAWFHFVFFIQAVLVILSVFLYLFAYKEYLACLVLAMALGWANMLYYTRGFQSMGMYSVMIQKVILHDVLKFLFVYIVFLLGFGVALASLIEKCPKDNKDCSSYGSFSDAVLELFKLTIGLGDLNIQQNSKYPILFLFLLITYVILTFVLLLNMLIALMGETVENVSKESERIWRLQRARTILEFEKMLPEWLRSRFRMGELCKVAEDDFRLCLRINEVKWTEWKTHVSFLNEDPGPVRRTDFNKIQDSSRNNSKTTLNAFEEVEEFPETSV
# notes: human TRPV3 (transient receptor potential vanilloid 3), full-length; theoretical mass of the monomer printed as 90.6 kDa; A PreScission cleavage site lies between TRPV3 and GFP-His8; The fusion is uncleaved in the FSEC runs; also called hTRPV3-GFP; hTRPV3; source: Sf9 insect cells (baculovirus), detergent-solubilized crude membranes, not purified; not shown: GFP, C-terminal, kept
# B2: human TRPV3, detergent-purified, GFP-His tag cleaved off (natural protein, UniProt Q8NET8 1-790, looked up)
# chain: B1 chain
# notes: human TRPV3 (transient receptor potential vanilloid 3), full-length; theoretical mass of the monomer printed as 90.6 kDa; also called hTRPV3; detergent-purified hTRPV3; source: Sf9 insect cells (baculovirus), purified (GFP trap, PreScission cleavage, SEC) in DDM and CHAPS; not shown: GFP, C-terminal, cleaved; His8, C-terminal, cleaved
# Assays:
# [1] = target: the molecule itself; experiment: SEC; fluorescence detection SEC (FSEC) of detergent-solubilized crude Sf9 membranes on Superose 6 10/300 GL; buffer A (200 mM NaCl, 50 mM Tris, pH 7.5) with DM, DDM or LDAO at ~1.5 x CMC; oligomer judged from the retention volume
# [2] = target: the molecule itself; experiment: SEC; UV detection SEC of hTRPV3 eluted from the GFP trap, Superose 6 10/300 GL; buffer B (100 mM NaCl, 10 mM Tris, pH 7.5) with 0.03% DDM and 0.1% CHAPS
Protein,stoichiometry N [1],stoichiometry N [2]
B1,4,–
B2,–,4
